{"source": "paper PMC4912634", "about": "(2016)"}
{"target": "DARPin-tubulin complex (used in ITC) ( (porcine or bovine brain), UniProt Q6B856 1-445)", "sequence (chain, as listed by the source, chain 1 of 3)": "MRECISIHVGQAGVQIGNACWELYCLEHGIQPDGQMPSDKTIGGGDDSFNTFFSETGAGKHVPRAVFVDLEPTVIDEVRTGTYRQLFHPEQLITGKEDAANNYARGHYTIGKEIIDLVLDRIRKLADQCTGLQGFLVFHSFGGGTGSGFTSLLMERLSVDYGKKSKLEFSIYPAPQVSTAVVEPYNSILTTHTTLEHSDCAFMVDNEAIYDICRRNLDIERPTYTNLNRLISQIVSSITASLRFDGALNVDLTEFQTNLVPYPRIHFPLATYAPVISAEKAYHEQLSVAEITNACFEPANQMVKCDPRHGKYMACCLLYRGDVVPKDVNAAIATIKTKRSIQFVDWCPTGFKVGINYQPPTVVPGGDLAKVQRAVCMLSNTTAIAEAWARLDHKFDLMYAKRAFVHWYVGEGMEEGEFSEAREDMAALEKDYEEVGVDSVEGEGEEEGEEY", "sequence (Q6B856 whole entry, chain 2 of 3)": "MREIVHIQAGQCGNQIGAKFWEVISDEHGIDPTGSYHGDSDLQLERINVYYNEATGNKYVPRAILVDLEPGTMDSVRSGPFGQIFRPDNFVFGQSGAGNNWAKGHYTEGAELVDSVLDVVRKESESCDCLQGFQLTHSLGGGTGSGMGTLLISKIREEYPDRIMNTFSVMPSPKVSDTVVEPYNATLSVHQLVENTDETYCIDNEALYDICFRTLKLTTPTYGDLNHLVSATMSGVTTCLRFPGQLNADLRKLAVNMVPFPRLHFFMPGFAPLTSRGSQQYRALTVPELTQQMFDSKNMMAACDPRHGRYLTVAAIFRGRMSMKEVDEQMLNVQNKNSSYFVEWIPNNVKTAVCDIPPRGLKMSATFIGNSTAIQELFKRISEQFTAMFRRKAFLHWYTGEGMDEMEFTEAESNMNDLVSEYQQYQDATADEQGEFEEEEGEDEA", "sequence (chain, as listed by the source, chain 3 of 3)": "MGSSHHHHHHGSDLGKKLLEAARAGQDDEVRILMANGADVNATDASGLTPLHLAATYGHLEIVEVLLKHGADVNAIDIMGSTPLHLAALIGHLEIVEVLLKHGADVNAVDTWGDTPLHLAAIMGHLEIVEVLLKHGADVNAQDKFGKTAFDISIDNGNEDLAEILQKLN", "assay": "ITC", "units": {"Kd": "nM"}}
{"binder": "KQPFLKRGEGLARFTNAKSKFQK", "note": "[PN2-3C peptide (PN2-3's C-terminus, aa 372-394 of CPAP)]", "Kd": 3400}
{"target": "tubulin heterodimer (porcine/bovine brain tubulin) ( (porcine or bovine brain), UniProt Q6B856 1-445)", "sequence (chain, as listed by the source, chain 1 of 2)": "as the sequence (chain, as listed by the source, chain 1 of 3) above", "sequence (Q6B856 whole entry, chain 2 of 2)": "as the sequence (Q6B856 whole entry, chain 2 of 3) above", "assay": "ITC", "units": {"Kd": "nM"}}
{"binder": "Y341A (protein) VANIEERPIKAAIGERKQTFEDALEEQIQLEEQELKQKQLKEAEGPLPIKAKPKQPFLKRGEGLARFTNAKSKFQK", "Kd": 136}
{"binder": "F385A (protein) VANIEERPIKAAIGERKQTFEDYLEEQIQLEEQELKQKQLKEAEGPLPIKAKPKQPFLKRGEGLARATNAKSKFQK", "Kd": 100}
{"binder": "K372E (protein) VANIEERPIKAAIGERKQTFEDYLEEQIQLEEQELKQKQLKEAEGPLPIKAKPEQPFLKRGEGLARFTNAKSKFQK", "Kd": 400}
{"binder": "K377E (protein) VANIEERPIKAAIGERKQTFEDYLEEQIQLEEQELKQKQLKEAEGPLPIKAKPKQPFLERGEGLARFTNAKSKFQK", "Kd": 1300}
{"binder": "ED339RR (protein) VANIEERPIKAAIGERKQTFRRYLEEQIQLEEQELKQKQLKEAEGPLPIKAKPKQPFLKRGEGLARFTNAKSKFQK", "Kd": 143}
{"binder": "R378E (protein) VANIEERPIKAAIGERKQTFEDYLEEQIQLEEQELKQKQLKEAEGPLPIKAKPKQPFLKEGEGLARFTNAKSKFQK", "Kd": 800}
{"binder": "F338A (protein) VANIEERPIKAAIGERKQTAEDYLEEQIQLEEQELKQKQLKEAEGPLPIKAKPKQPFLKRGEGLARFTNAKSKFQK", "Kd": 116}
{"binder": "EE349RR (protein) VANIEERPIKAAIGERKQTFEDYLEEQIQLRRQELKQKQLKEAEGPLPIKAKPKQPFLKRGEGLARFTNAKSKFQK", "Kd": 256}
{"binder": "R384E (protein) VANIEERPIKAAIGERKQTFEDYLEEQIQLEEQELKQKQLKEAEGPLPIKAKPKQPFLKRGEGLAEFTNAKSKFQK", "Kd": 1900}
